Laboratory results from US20060141569A1, “Compositions and methods for the assay of G-protein coupled receptors and their ligands” (priority 2004, published 2006).

Molecular target: human CRF1 receptor (human) (UniProt P34998)
Test: cell-based or functional assay

Sequence of human CRF1 receptor (human) (P34998 24-415): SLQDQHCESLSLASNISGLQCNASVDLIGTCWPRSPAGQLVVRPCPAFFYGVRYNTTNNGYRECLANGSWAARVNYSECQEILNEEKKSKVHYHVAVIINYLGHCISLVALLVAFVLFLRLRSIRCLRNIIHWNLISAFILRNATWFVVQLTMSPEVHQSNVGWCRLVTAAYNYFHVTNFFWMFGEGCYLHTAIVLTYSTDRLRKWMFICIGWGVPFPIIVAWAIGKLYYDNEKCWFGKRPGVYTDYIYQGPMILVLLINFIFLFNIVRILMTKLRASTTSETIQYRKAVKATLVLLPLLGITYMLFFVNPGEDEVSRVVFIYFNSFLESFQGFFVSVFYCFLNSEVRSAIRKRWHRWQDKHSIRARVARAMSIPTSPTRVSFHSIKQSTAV

Substance: sauvagine (from UniProt P01144 1-40) (peptide)
- FLIPR Ca^2+ response EC50, CHEM-1 cells: 12 nM
- FLIPR EC50, CRF1/CHEM-1 cells: 10 nM
- cAMP response EC50, CHEM-1 cells: 4.9 nM
- cAMP response EC50, CHO cells: 8.4 nM
